The stoichiometry N is the number of molecules, sites or subunits per partner or assembly. The term Kd denotes the concentration at which binding is half-saturated.

The record followed here is article PMC8517857, “BusR senses bipartite DNA binding motifs by a unique molecular ruler architecture” (Nucleic Acids Research, 2021).

For data set [1], the target named is RCK_C domain of S. agalactiae BusR (Leu135 to end), no His6-tag (Streptococcus agalactiae). Put plainly: crystal structure; RCK_C (no His6-tag), 4.5 mg/mL, co-crystallised with 1 mM c-di-AMP, 100 mM sodium-acetate pH 4.6, 3% PEG 4000, 20°C; 1.2 Å.
Data set [2] has as its target His6-RCK_C domain of S. agalactiae BusR (Leu135 to end) (Streptococcus agalactiae). Put plainly: SAXS; isolated RCK_C domain in the absence of c-di-AMP; batch mode or SEC-SAXS, P12 beamline, PETRA III.
Data set [3] shares this target. Put plainly: crystal structure; apo His6-RCK_C, 6 mg/mL, 0.1 M Bis-Tris pH 6.5, 18% PEG MME 5000, 20°C; 1 Å; dimer by a symmetry related copy.
In data set [4] the target is BusR from Streptococcus agalactiae (full length) (Streptococcus agalactiae). Put plainly: cryo-EM structure; BusR with c-di-AMP (100 μM) and operator DNA (pAB, 4.5 Å; pAB1, 7.1 Å), 20 mM HEPES pH 6.5, 100 mM NaCl.
The target is the same in data set [5]. Put plainly: SAXS; full length BusR in 20 mM HEPES pH 7.5, 200 mM NaCl, 3% glycerol; P12 beamline, PETRA III.
Data set [6] shares this target. Put plainly: SEC-MALS; SEC-coupled right angle light scattering (SEC-RALS), Superdex S200 10/300 increase, 20°C, buffer SEC (30 mM NaPi pH 6.5, 200 mM NaCl, 3% glycerol); BusR alone (apo) and with c-di-AMP. Background: Size exclusion chromatography separates by hydrodynamic size, large species first.
Data set [7] concerns the target selenomethionine substituted full-length BusR from Streptococcus agalactiae (Streptococcus agalactiae). Put plainly: crystal structure; selenomethionine full-length BusR, apo, 7 mg/ml, 150 mM magnesium-acetate, 6% D+trehalose, 20°C; SAD, 2.8 Å.
The target of data set [8] is T1, BusR (Streptococcus agalactiae, UniProt K0JNC6).
T1 construct: gene BM110_ORF1201; full-length BusR (ITC)
The data set can be described thus: ITC; […] Å co-crystal structure of the RCK_C domain; cryo-EM of the BusR:c-di-AMP:DNA complex. It is filed as binding. On the technique in general: In ITC the heat of successive injections is recorded.

The target in data set [9] is T2, BusR wt (Streptococcus agalactiae DSM 16828, UniProt K0JNC6 1-213).
T2 sequence: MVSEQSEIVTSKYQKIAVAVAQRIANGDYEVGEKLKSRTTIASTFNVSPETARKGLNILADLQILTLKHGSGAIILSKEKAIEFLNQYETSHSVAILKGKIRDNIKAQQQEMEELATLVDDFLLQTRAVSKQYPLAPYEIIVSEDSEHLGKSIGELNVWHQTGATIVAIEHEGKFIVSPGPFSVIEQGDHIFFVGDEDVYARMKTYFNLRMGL
Put plainly: EMSA; 10 uM c-di-AMP, 100 nM BusR; EMSA: 100 mM KPi pH 6.5, 20 mM KCl, 30 min 20 C, 20 nM DNA, gel at 8 C; SPR: 100 mM NaPi pH 6.5, 20 mM KCl, 200 mM NaCl, 3 mM EDTA, 0.05% P20; BusR concentrations as tetramer. As to conditions: protein: recombinant; tags: His6-MBP removed with PreScission protease; chain copies: 4; label: 5'-6-FAM on strand 1; blunt.

Data set [10] deals with T2, BusR wt. The data set can be described thus: SPR; 10 uM c-di-AMP; EMSA: 100 mM KPi pH 6.5, 20 mM KCl, 30 min 20 C, 20 nM DNA, gel at 8 C; SPR: 100 mM NaPi pH 6.5, 20 mM KCl, 200 mM NaCl, 3 mM EDTA, 0.05% P20; BusR concentrations as tetramer. As to conditions: protein: recombinant; tags: His6-MBP removed with PreScission protease; chain copies: 4; blunt.
Data set [11] concerns the target T3, BusR W159A (Streptococcus agalactiae DSM 16828, UniProt K0JNC6 1-213, W159A). Described as above. To be noted: protein: recombinant; tags: His6-MBP removed with PreScission protease; chain copies: 4; blunt.
Data set [12] concerns the target T3, BusR W159A. Put plainly: SPR; no c-di-AMP; EMSA: 100 mM KPi pH 6.5, 20 mM KCl, 30 min 20 C, 20 nM DNA, gel at 8 C; SPR: 100 mM NaPi pH 6.5, 20 mM KCl, 200 mM NaCl, 3 mM EDTA, 0.05% P20; BusR concentrations as tetramer. As to conditions: protein: recombinant; tags: His6-MBP removed with PreScission protease; chain copies: 4; blunt.
Data set [13] addresses T2, BusR wt. Put plainly: cryo-EM; c-di-AMP; 7.1 A; EMSA: 100 mM KPi pH 6.5, 20 mM KCl, 30 min 20 C, 20 nM DNA, gel at 8 C; SPR: 100 mM NaPi pH 6.5, 20 mM KCl, 200 mM NaCl, 3 mM EDTA, 0.05% P20; BusR concentrations as tetramer. As to conditions: protein: recombinant; tags: His6-MBP removed with PreScission protease; chain copies: 4; blunt. In general terms: A gel shift assay detects complexes by their altered migration in electrophoresis.

Consider “RCK_C domain of S. agalactiae BusR (Leu135 to end), no His6-tag (domain or fragment)”, for which, in data set [1], the stoichiometry N turned out to be 2.

“His6-RCK_C domain of S. agalactiae BusR (Leu135 to end) (domain or fragment)”: the stoichiometry N in [2] and in [3] was 2 throughout.

With “BusR from Streptococcus agalactiae (full length) (natural protein)”, the stoichiometry N in data set [4], in [5] and in data set [6] was 4 throughout.

“selenomethionine substituted full-length BusR from Streptococcus agalactiae (natural protein)”: the stoichiometry N in data set [7] was found to be 4.

In turn, `Nc1ncnc2c1ncn2[C@@H]1O[C@@H]2COP(=O)(O)O[C@H]3[C@@H](O)[C@H](n4cnc5c(N)ncnc54)O[C@@H]3COP(=O)(O)O[C@H]2[C@H]1O` [c-di-AMP] yielded a Kd in data set [8] of 112 ± 7 nM.

B1: pAB1 -10bp (dsDNA)
DNA 1: ATAAAGTGACGTTAAAAGGGTAGTCACTTTTTTACT
DNA 2: AGTAAAAAAGTGACTACCCTTTTAACGTCACTTTAT
As for B1, in data set [9], the binding result is “no binding”.

B2: pAB1 0BS (dsDNA)
DNA 1: ATAAAGTATGGTTAAAGTATCGTAAAAGGGTACATACTTTTTTACT
DNA 2: AGTAAAAAAGTATGTACCCTTTTACGATACTTTAACCATACTTTAT
On to B2, for which the binding result in [9] was “no binding”.

B3: pAB1 (SPR) (dsDNA)
DNA 1: ATAAAGTGACGTTAAAGTATCGTAAAAGGGTAGTCACTTTTTTACT
DNA 2: AGTAAAAAAGTGACTACCCTTTTACGATACTTTAACGTCACTTTAT
On to B3, for which the values for the Kd in data set [10], in [11] and in data set [12] were 5.1 ± 0.4 nM, 34 ± 8 nM and 11 ± 2 nM, respectively.

B4: pAB1 1BS-A (dsDNA)
DNA 1: ATAAAGTATGGTTAAAGTATCGTAAAAGGGTAGTCACTTTTTTACT
DNA 2: AGTAAAAAAGTGACTACCCTTTTACGATACTTTAACCATACTTTAT
Regarding B4, in data set [9], the binding result was “no binding”.

B5: pAB1 1BS-B (dsDNA)
DNA 1: ATAAAGTGACGTTAAAGTATCGTAAAAGGGTACATACTTTTTTACT
DNA 2: AGTAAAAAAGTATGTACCCTTTTACGATACTTTAACGTCACTTTAT
Take B5: the binding result in data set [9] is listed as “no binding”.

B6: pAB1 +5bp (dsDNA)
DNA 1: ATAAAGTGACGTTAAAGTATCGTCGATTAAAAGGGTAGTCACTTTTTTACT
DNA 2: AGTAAAAAAGTGACTACCCTTTTAATCGACGATACTTTAACGTCACTTTAT
In the case of B6, the binding result in [9] is reported as “no binding”.

B7: pAB1_EM (dsDNA)
DNA 1: CGGTAAAGTGACGTTAAAGTATCGTAAAAGGGTAGTCACTTTTCGG
DNA 2: CCGAAAAGTGACTACCCTTTTACGATACTTTAACGTCACTTTACCG
Turning to B7, the binding result in data set [13] was “binds”.
